Data: the supplement of paper PMC9170038

Tested on: MS2 coat protein
Assay: apparent KD of MS2 coat protein; designed switch direction (-1 OFF switch, 1 ON switch): -1; higher = weaker reporter binding
How it was run: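 Each step of the titration lasted 0.8–1.5 h at the lowest concentration and 10–20 min at the highest. The protein, SNAP-549-labelled MS2 coat protein, went from 0.7 or 1.5 nM doubling to 3 µM over RNA switches transcribed on Illumina chips by stalled E. coli RNA polymerase. Normalised cluster fluorescence was curve-fitted, and the per-design median over clusters is given as apparent KD.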

[1] = input ligand: microRNA oligo, concentration not stated
[2] = Eterna round: R95, input ligand: FMN 200 uM
[3] = Eterna round: R95, input ligand: microRNA oligo, concentration not stated
[4] = Eterna round: R95, input ligand: none

| Sequence | apparent KD of MS2 coat protein (input ligand: FMN 200 uM) | apparent KD of MS2 coat protein [1] | apparent KD of MS2 coat protein (input ligand: none) | also measured |
| --- | --- | --- | --- | --- |
| UACAUGAGGAUCACCCAUGUUUUGUCGUGUAUGGUAUUUAUCUAGGAUAUCAAUCUAUUUAUGUAUGAGAAGGAGAAUAUUAAU [JMF's solution 55] (Eterna round: R96, puzzle: Exclusion NG 3) | 42.3 nM | 28.9 nM | 41.1 nM |  |
| UACAUGAGGAUCACCCAUGUUUUGUCGUGUAUGGUAUUUAUCUAGGAUAUCAAUUUGGUUAUUUAUGAGAAGGAGAAUAUUAAU [JMF's solution 66] (Eterna round: R96, puzzle: Exclusion NG 3) | 48.9 nM | 31.6 nM | 37.2 nM |  |
| UACAUGAGGAUCACCCAUGUUUUGUCGUGUAUGGUAUUUAUCUAGGAUAUCAUUUGAUUUAUUUAUGAGAAGGAGAAUAUUAAU [JMF's solution 100] (Eterna round: R96, puzzle: Exclusion NG 3) | 34.3 nM | 28.1 nM | 29.8 nM |  |
| UACAUGAGGAUCACCCAUGUUUUGUCGUGUAUGGUAUUUAUCUAGGAUAUCAUUUUAUUUAGUUAUGAGAAGGAGAAUAUUAAU [JMF's solution 79] (Eterna round: R96, puzzle: Exclusion NG 3) |  | 36.1 nM |  |  |
| UACAUGAGGAUCACCCAUGUUUUGUCGUGUAUGGUAUUUAUCUAGGAUAUCAUUUUAUUUAUUUAUGAGAAGGAGAAUAUUAAU [JMF's solution 6] (Eterna round: R96, puzzle: Exclusion NG 3) | 49.4 nM | 27 nM | 37.2 nM |  |
| UACCGGCGGACCGAAGCUUUUUGCUUGUCUUAUACUACAACAUGAGGAUCACCCAUGUGGUGGUGGUCCGUUGUAGU [JL ViennaUCT Bitein mod 2] (puzzle: Sensor v3, turn-off variant 2) |  |  |  | apparent KD of MS2 coat protein [2]: 54.4 nM; apparent KD of MS2 coat protein [3]: 17.8 nM; apparent KD of MS2 coat protein [4]: 47.3 nM |
| UACCUGAGGCAAAGCUUUAGGUAAACAUGAGGAUCACCCAUGUAGGAUAUGGUAGGCUUUGCUUACCAGAAGGACAUGUUAAUU [Mat - Exclusion NG 3 - Mod of JL - D33] (Eterna round: R96, puzzle: Exclusion NG 3) | 215 nM | 41.9 nM | 59.7 nM |  |
| UACUUCCGAGGAUAUACAUGAGGAUCACCCAUGUGCUUCAGCAUUGAAAGAUGCAUGGGUAGAAGGCGGUAGUU [LRO-Excl3-18] (puzzle: Exclusion 3) |  |  |  | apparent KD of MS2 coat protein [2]: 253 nM; apparent KD of MS2 coat protein [3]: 297 nM; apparent KD of MS2 coat protein [4]: 171 nM |
| UACUUCUGAGGAUAUACAUAGAUUUACAUGAGGAUCACCCAUGUUCCUCUAUGUAUAAAUGUAGAAGGCAGAAGAU [Mat - Exclusion 5 - JL Mod - D61] (Eterna round: R97, puzzle: Exclusion 5) | 87.8 nM |  | 16.7 nM |  |
| UAGAUACAUGAGGAUCACCCAUGUGAGGAUAUGAAUAAGAAUAGAUAAGAUAGUAGAAUCAGAAGGCACAAUGG [Starry Exclusion 1.2] (puzzle: Exclusion 1) |  |  |  | apparent KD of MS2 coat protein [2]: 70.1 nM; apparent KD of MS2 coat protein [3]: 47.4 nM; apparent KD of MS2 coat protein [4]: 51.8 nM |
| UAGAUACAUGAGGAUCACCCAUGUGAGGAUAUGAGAAUUAUAUUAAAUGAAUGAAUUUUCAGAAGGCACAAAGG [JR_Ex1_Sub051] (Eterna round: R97, puzzle: Exclusion 1) | 482 nM |  | 221 nM |  |
| UAGAUACAUGAGGAUCACCCAUGUGAGGAUAUGAGGGUUAGCUUAAAUGGGCUGACUUUCAGAAGGCACAAGAA [JR_Ex1_Sub057] (Eterna round: R97, puzzle: Exclusion 1) | 94.7 nM |  | 43 nM |  |
| UAGCAACGAGGAUAUGCGGGCCUGAACCUAAAGUCGACCUUACAUGAGGAUCACCCAUGUAGAAGGCGUAGUGU [Eternabot (L2) Solution 71] (Eterna round: R97, puzzle: Exclusion 2) | 16.8 nM |  | 18.3 nM |  |
| UAGCAGAGAGGAUAUACAUUCAUCACCCGCGCAUCAUGCGCACAUGAGGAUCACCCAUGUAGAAGGCUCGUGCC [EX2 C.27] (Eterna round: R97, puzzle: Exclusion 2) | 74.3 nM |  | 28.2 nM |  |
| UAGGAGAGAGUGAGGAUAUCCGGAAGAGAGGAUCAGGAGAAGGCACAUGAGGAUCACCCAUGUAAAAGAGGGAA [I think I solved risk of not working] (Eterna round: R97, puzzle: Brourd's mod of Exclusion 4) | 63.5 nM |  | 51.9 nM |  |
| UAGGAGCAAGGAUAUACGAGGAUAUGGUAGUUUGUAGAGUGACAUGAGGAUCACCCAUGUAGAAGGUGCGUGUG [JR_Exclu2_Sub0100] (puzzle: Exclusion 2) |  |  |  | apparent KD of MS2 coat protein [3]: 82.9 nM |
| UAGGUGUGAGGAUAUGGUAAAGAAAAGAUGAUGAAAGAACUCCAGAAGGCACAUGAGGAUCACCCAUGUAGAUG [Mat - Exclusion 4 - Mod of JL - D32] (puzzle: Exclusion 4) |  |  |  | apparent KD of MS2 coat protein [3]: 28.7 nM |
| UAGUACCAAGGAUAUGCGUGACCAUGGCCUCCGUGGUAGAGACAUGAGGAUCACCCAUGUAGAAGGUGGAUAAC [Eternabot (L1) Solution 74] (Eterna round: R97, puzzle: Exclusion 2) | 401 nM |  | 335 nM |  |

| Sequence | apparent KD of MS2 coat protein (input ligand: FMN 200 uM) | apparent KD of MS2 coat protein [1] | apparent KD of MS2 coat protein (input ligand: none) | also measured |
| --- | --- | --- | --- | --- |
| UAGUUAUUCACAGGAUAUCGCCUCUUAUUACAUGAGGAUCACCCAUGUUUAUUUUGUUACAUGUUCGAGAAGGGUGUAGCCGUU [JR_ExcNG2_Sub045] (Eterna round: R96, puzzle: Exclusion NG 2) |  | 258 nM |  |  |
| UAUAAUACAUAGGAUAUCGAAAUAAUCAUUUAACGAGAAGGAUGAACAUGAGGAUCACCCAUGUGGUAUCAUGG [Mat - Exclusion 6 - JL Mod - D11] (puzzle: Exclusion 6) |  |  |  | apparent KD of MS2 coat protein [2]: 379 nM; apparent KD of MS2 coat protein [3]: 328 nM; apparent KD of MS2 coat protein [4]: 319 nM |
| UAUAGACAUGAGGAUCACCCAUGUGAGGAUAUGUACAACAACAAGCCGGAAGCGGAAUACAGAAGGCACAAAUA [JR_Exclusion1_Sub029] (puzzle: Exclusion 1) |  |  |  | apparent KD of MS2 coat protein [2]: 36.8 nM; apparent KD of MS2 coat protein [3]: 35.7 nM; apparent KD of MS2 coat protein [4]: 51.4 nM |
| UAUAGGCGAGGAUAUACUAACAAACGGAUCGCCAAACAAGAACUUGAGGAUCACCCAAGUAGAAGGCGCAAUUG [Gezaonsoma] (Eterna round: R97, puzzle: Exclusion 2) | 15.8 nM |  | 24.1 nM |  |
| UAUAUAUAGUAAGGAUAUGUAAUUACUUUAUAAACAGAAGGUACUGACAUGAGGAUCACCCAUGUUUUAGUGUGGGCAUGUAGA [JMF's solution 37] (Eterna round: R96, puzzle: Exclusion NG 1) |  | 70.1 nM |  |  |
| UAUAUAUAGUAAGGAUAUGUAAUUAUUUGAUAAACAGAAGGUACUGACAUGAGGAUCACCCAUGUUUUAGUGUGGGCAUGUAGA [JMF's solution 42] (Eterna round: R96, puzzle: Exclusion NG 1) |  | 72.7 nM |  |  |
| UAUAUAUAGUAAGGAUAUGUAUAUAGUUUAUAAACAGAAGGUACUGACAUGAGGAUCACCCAUGUUUUAGUGUGGGCAUGUAGA [JMF's solution 56] (Eterna round: R96, puzzle: Exclusion NG 1) |  | 61.3 nM |  |  |
| UAUAUAUAGUAAGGAUAUGUAUAUAUUUAAUAAACAGAAGGUACUGACAUGAGGAUCACCCAUGUUUUAGUGUGGGCAUGUAGA [JMF's solution 63] (Eterna round: R96, puzzle: Exclusion NG 1) |  | 59.9 nM |  |  |
| UAUAUAUAGUAAGGAUAUGUAUUAAUUUUAGAAACAGAAGGUACUGACAUGAGGAUCACCCAUGUUUUAGUGUGGGCAUGUAGA [JMF's solution 88] (Eterna round: R96, puzzle: Exclusion NG 1) |  | 75.7 nM |  |  |
| UAUAUAUAGUAAGGAUAUGUAUUUAUUUAAUAAACAGAAGGUACUGACAUGAGGAUCACCCAUGUUUUAGUGUGGGCAUGUAGA [JMF's solution 19] (Eterna round: R96, puzzle: Exclusion NG 1) |  | 66.3 nM |  |  |
| UAUAUGUCAGGAUAUCGAUUAGAACAGAAUUUAACAAUAGUCGAGAAGGGACAUGAGGAUCACCCAUGUUCAAC [JR_Ex4_Sub021] (Eterna round: R97, puzzle: Exclusion 4) | 41.7 nM |  | 20.5 nM |  |
| UAUAUGUUAGGAUAUUAGUAGUAAAUAAAUAAAAUUAUUACUGAGAAGGGACAUGAGGAUCACCCAUGUACCUC [Salish 062 v33] (Eterna round: R97, puzzle: Exclusion 4) | 21.9 nM |  | 12.7 nM |  |
| UAUGGGUGUGUGAGGAUAUACGAAGGCAGUGGCCAGUAGAAGGUACAUGAGGAUCACCCAUGUGUCCAAAAGUG [Isonge] (puzzle: Brourd's mod of Exclusion 4) |  |  |  | apparent KD of MS2 coat protein [3]: 13.9 nM |
| UAUGGUUAAGUCAGGAUAUACUCAUAGAAGUCUGUGUAGAAGGGACAUGAGGAUCACCCAUGUAUGGUAGUGUU [Ex4 #47] (Eterna round: R97, puzzle: Brourd's mod of Exclusion 4) | 151 nM |  | 159 nM |  |
| UAUGUGUCAGGAUAUUAAUUAGAACAGAAUUUAACAAUAAUUAAGAAGGGACAUGAGGAUCACCCAUGUUCAUC [JR_Ex4_Sub023] (Eterna round: R97, puzzle: Exclusion 4) | 27.9 nM |  | 23.3 nM |  |
| UAUUACCUAGGAUAUACAUGAGGAUCACCCAUGUCACGGGUCAACUUGUCCUAUGCGUGUAGAAGGAGGGACCC [JL Ceriza mod 6] (Eterna round: R96, puzzle: Exclusion 3) | 25 nM | 16.5 nM | 25.4 nM |  |
| UAUUACCUAGGAUAUACAUGAGGAUCACCCAUGUCACGGGUCAACUUGUCCUAUGCGUGUAGAAGGAGGGACCC [JL Ceriza mod 6] (puzzle: Exclusion 3) |  |  |  | apparent KD of MS2 coat protein [3]: 18.9 nM |
